# Assay results published in patent US20260008815A1, “CYCLIC PEPTIDE OR SALT THEREOF, AND USES THEREOF” (FUJIFILM Corporation, priority 2023, published 2026).
# Numbered stars: 1 amine (or outer) side, 2 acyl side, 3 side chain; on linkers, the order of the positions; unused ones are H or OH. Bridge positions count the residues as written; N and C are the ends. Ends that are not written are not given here. acetyl = acetyl (haloacetyl before ring closure) on the side-chain amine, O=C(C[*:1])[*:2]; COCH2 = acetyl group that carries the bridge
# Molecular target: T1, Recombinant Human FGFR2 alpha (IIIc) Fc Chimera Protein (Homo sapiens, UniProt P21802)
# T1 construct: Fc (chimera); purchased R&D systems 712-FR-050
# Experiment: ELISA binding affinity of enzymatically synthesized peptide to FGFR
# Settings: ELISA luminescence signal at 10 nmol/L peptide, SEQ ID NO: 47 at 10 nmol/L standardized to 1; enzyme synthesis product
# In short: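 FGFR2 alpha (IIIc) Fc chimera (5 ng/well) was immobilized, and Myc-tagged peptide was bound 3 h at room temperature, then detected with anti-Myc antibody (2 h) and chemiluminescent substrate. Signal was corrected against FGFR-free wells. Score A–D was the luminescence at 10 nmol/L peptide, normalized to cyclic peptide SEQ ID NO: 47.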
# T1 sequence (P21802 with tags, fused parts or gaps limits assumed): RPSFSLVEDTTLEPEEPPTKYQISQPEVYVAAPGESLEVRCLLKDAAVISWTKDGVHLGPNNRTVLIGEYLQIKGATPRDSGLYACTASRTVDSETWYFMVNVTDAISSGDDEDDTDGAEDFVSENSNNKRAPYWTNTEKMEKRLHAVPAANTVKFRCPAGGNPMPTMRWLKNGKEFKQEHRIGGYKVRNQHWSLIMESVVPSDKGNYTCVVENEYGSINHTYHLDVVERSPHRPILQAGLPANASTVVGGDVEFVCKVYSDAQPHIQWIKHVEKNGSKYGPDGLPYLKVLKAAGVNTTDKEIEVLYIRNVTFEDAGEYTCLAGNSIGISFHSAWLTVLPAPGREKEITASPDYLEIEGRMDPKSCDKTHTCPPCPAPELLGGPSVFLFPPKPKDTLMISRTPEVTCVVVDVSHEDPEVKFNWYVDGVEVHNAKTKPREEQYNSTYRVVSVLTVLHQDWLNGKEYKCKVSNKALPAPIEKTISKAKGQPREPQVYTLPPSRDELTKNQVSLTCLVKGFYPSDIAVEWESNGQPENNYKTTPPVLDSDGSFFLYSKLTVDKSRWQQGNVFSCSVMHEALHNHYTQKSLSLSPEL
row,Substance,Evaluation result of binding affinity to FGFR
1,202 (YCEENYSDPEQYQYFIYFK(COCH2)Y; thioether 2-19 (inferred)) [compound 202],B (0.5 or more and less than 0.7)
2,212 (YCEENYLYPEQYQYFIYFK(COCH2)Y; thioether 2-19 (inferred)) [compound 212],A (0.7 or more)
3,89 (QCPQNFINPVQWRYYQHYK(COCH2)N; thioether 2-19 (inferred)) [compound 89],B (0.5 or more and less than 0.7)
4,181 (YCEEGYLDPEQYQYFIYFK(COCH2)Y; thioether 2-19 (inferred)) [compound 181],B (0.5 or more and less than 0.7)
5,186 (YCEENLLDPEQYQYFIYFK(COCH2)Y; thioether 2-19 (inferred)) [compound 186],C (0.1 or more and less than 0.5)
6,259 (YCEENYLDPEQYIYFIYFK(COCH2)Y; thioether 2-19 (inferred)) [compound 259],A (0.7 or more)
7,279 (YCEENYLDPEQYQYFVYFK(COCH2)Y; thioether 2-19) [compound 279],A (0.7 or more)
8,237 (YCEENYLDPPQYQYFIYFK(COCH2)Y; thioether 2-19 (inferred)) [compound 237],A (0.7 or more)
9,220 (YCEENYLHPEQYQYFIYFK(COCH2)Y; thioether 2-19 (inferred)) [compound 220],A (0.7 or more)
10,226 (YCEENYLDYEQYQYFIYFK(COCH2)Y; thioether 2-19 (inferred)) [compound 226],A (0.7 or more)
11,170 (YCEVNYLDPEQYQYFIYFK(COCH2)Y; thioether 2-19 (inferred)) [compound 170],A (0.7 or more)
12,177 (YCETNYLDPEQYQYFIYFK(COCH2)Y; thioether 2-19 (inferred)) [compound 177],A (0.7 or more)
13,126 (LCEINWLSQEQYGYFIEYK(COCH2)T; thioether 2-19 (inferred)) [compound 126],A (0.7 or more)
14,184 (YCEESYLDPEQYQYFIYFK(COCH2)Y; thioether 2-19 (inferred)) [compound 184],C (0.1 or more and less than 0.5)
15,129 (ECPWNFVNQLQWQYFITYK(COCH2)V; thioether 2-19 (inferred)) [compound 129],A (0.7 or more)
16,264 (YCEENYLDPEQYNYFIYFK(COCH2)Y; thioether 2-19) [compound 264],A (0.7 or more)
17,265 (YCEENYLDPEQYSYFIYFK(COCH2)Y; thioether 2-19) [compound 265],A (0.7 or more)

row,Substance,Evaluation result of binding affinity to FGFR
1,203 (YCEENYTDPEQYQYFIYFK(COCH2)Y; thioether 2-19 (inferred)) [compound 203],A (0.7 or more)
2,146 (TCEENYLDPEQYQYFIYFKY; Description of Artificial Sequence: Cyclic peptide) [compound 146],A (0.7 or more)
3,191 (YCEENSLDPEQYQYFIYFK(COCH2)Y; thioether 2-19 (inferred)) [compound 191],C (0.1 or more and less than 0.5)
4,189 (YCEENNLDPEQYQYFIYFK(COCH2)Y; thioether 2-19 (inferred)) [compound 189],B (0.5 or more and less than 0.7)
5,106 (QCPQNFINPVQHRYFQHYK(COCH2)N; thioether 2-19 (inferred)) [compound 106],A (0.7 or more)
6,79 (NCPQNFINPVQWRYFQHYK(COCH2)N; thioether 2-19 (inferred)) [compound 79],A (0.7 or more)
7,215 (YCEENYLQPEQYQYFIYFK(COCH2)Y; thioether 2-19 (inferred)) [compound 215],A (0.7 or more)
8,156 (YCFENYLDPEQYQYFIYFK(COCH2)Y; thioether 2-19 (inferred)) [compound 156],A (0.7 or more)
9,120 (QCWYIQQYIWERYFLWHNK(COCH2)E; thioether 2-19 (inferred)) [compound 120],C (0.1 or more and less than 0.5)
10,52 (VCNENNWSRSQYHFFLQYKY; Description of Artificial Sequence: Cyclic peptide) [compound 52],C (0.1 or more and less than 0.5)
11,40 (DCSGNFFSKEQFHYLELFK(COCH2)K; thioether 2-19 (inferred)) [compound 40],A (0.7 or more)
12,131 (YCEENYLDPEQYQYFIYFK(COCH2)Y; thioether 2-19 (inferred)) [compound 131],A (0.7 or more)
13,132 (ECQENFVDRQQYWYFLSYK(COCH2)F; thioether 2-19 (inferred)) [compound 132],A (0.7 or more)
14,201 (YCEENYQDPEQYQYFIYFK(COCH2)Y; thioether 2-19 (inferred)) [compound 201],A (0.7 or more)
15,274 (YCEENYLDPEQYQHFIYFK(COCH2)Y; thioether 2-19) [compound 274],C (0.1 or more and less than 0.5)
16,160 (YCQENYLDPEQYQYFIYFK(COCH2)Y; thioether 2-19 (inferred)) [compound 160],A (0.7 or more)
17,95 (QCPQGFINPVQWRYFQHYK(COCH2)N; thioether 2-19) [compound 95],C (0.1 or more and less than 0.5)

# Continued, values first:
row,Evaluation result of binding affinity to FGFR,Substance
1,C (0.1 or more and less than 0.5),420 (YCEAQPYYFQLYRLWHRQEK(COCH2)P; thioether 2-20 via acetyl) [compound 420]
2,A (0.7 or more),411 (TCVDKDNWYNHVQWQYFFLYK(COCH2)Q; thioether 2-21 (inferred)) [compound 411]
3,C (0.1 or more and less than 0.5),371 (DCQLWYLYQYLIVK(COCH2)A; thioether 2-14) [compound 371]
4,C (0.1 or more and less than 0.5),327 (YCEENYADPEQYQYFIYFK(COCH2)Y; thioether 2-19 (inferred)) [compound 327]
5,A (0.7 or more),346 (YCEENYLDPEQYQYFIYFK(COCH2)K; thioether 2-19) [compound 346]
6,C (0.1 or more and less than 0.5),418 (DCLRQQVYQYLYILFQNDIAK(COCH2)D; thioether 2-21 via acetyl) [compound 418]
7,C (0.1 or more and less than 0.5),429 (YCHENYLDPEQYQYFHYFK(COCH2); thioether 2-19 via acetyl) [compound 429]
8,C (0.1 or more and less than 0.5),415 (YCDWVEVANARQLAYYTLYRKK; Description of Artificial Sequence: Cyclic peptide) [compound 415]
9,C (0.1 or more and less than 0.5),375 (DCLQFIYQYLYTVK(COCH2)I; thioether 2-14) [compound 375]
10,A (0.7 or more),391 (YCEENYLDPEQYQYFHYFK(COCH2)H; thioether 2-19 (inferred)) [compound 391]
11,C (0.1 or more and less than 0.5),404 (DCIRPYDQLQLIYQYLYQLK(COCH2)K; thioether 2-20 (inferred)) [compound 404]
12,A (0.7 or more),304 (YCEENYLDPEQYQYFIRFK(COCH2)Y; thioether 2-19 (inferred)) [compound 304]
13,C (0.1 or more and less than 0.5),382 (PCDRQLYYLYQYIHK(COCH2)T; thioether 2-15 (inferred)) [compound 382]
14,C (0.1 or more and less than 0.5),366 (DCQQYYLYLYLWK(COCH2)I; thioether 2-13) [compound 366]
15,A (0.7 or more),311 (YCEENYLDPEQYQYFIYFK(COCH2)V; thioether 2-19 (inferred)) [compound 311]
16,A (0.7 or more),308 (YCEENYLDPEQYQYFIYFK(COCH2)G; thioether 2-19 (inferred)) [compound 308]
17,A (0.7 or more),288 (YCEENYLDPEQYQYFEYFK(COCH2)Y; thioether 2-19) [compound 288]
18,C (0.1 or more and less than 0.5),292 (YCEENYLDPEQYQYFIPFK(COCH2)Y; thioether 2-19) [compound 292]
19,C (0.1 or more and less than 0.5),413 (QCDQDAIQWVYDLQYYRVWHKV; Description of Artificial Sequence: Cyclic peptide) [compound 413]
20,C (0.1 or more and less than 0.5),383 (QCQLYYLYQYAYALK(COCH2)V; thioether 2-15 (inferred)) [compound 383]
21,C (0.1 or more and less than 0.5),416 (LCTQFPASQRYYFALYRLWHKS; Description of Artificial Sequence: Cyclic peptide) [compound 416]
22,A (0.7 or more),322 (ACEENYLDPEQYQYFIYFK(COCH2)Y; thioether 2-19 (inferred)) [compound 322]
23,A (0.7 or more),295 (YCEENYLDPEQYQYFIVFK(COCH2)Y; thioether 2-19) [compound 295]
